Experiment: label from the status in PepcDB records

Q: For “MSKLKTIALTASGLSVCPGFLYAQNTSSHQIGLAIMRLNSSILDLPPTKQYFQSGSLWSELRQGFRMGEVNPELVRRHESKFIASHSYFNRVINRSRPYMYHIANEVKKRNMPAEAALLPFIESAFVTKAKSHVGASGLWQFMPATGRHYGLEKTPVYDGRHDIYAATDAALNYLQYLYGLFGDWPLAFAAYNWGEGNVGRAINRARAQGLEPTYENLRMPNETRNYVPKLLAVRNIIAAPQSFGMNISDIDNKPYFQAVEPDRPLDNEAIARLAGITQSELLALNPAFNVPAFIPKSKRKLLLPVASVQTFQSNYLNAAPDSLFSWEVYTPAAKTSLSDISTATGMSIADIKRLNNLNGNLVNAGRSILVAKNGKTLQTASESVVSIDIDNTPNTYRSNMPAGTVNVGIARIRPAAAQTADITVAPLPQKTVRTEPDPLVRIAEPALATAAAQPQTEKQTAMPSETQTATLAQIVPQNDMQAADELMQLVARNNLRRQAEETISAVIGTPDTVAEHNISSSPQHTVAADGKRRVRLETRVAKAADGEAEISPLHASIHRVVEGDTLFNIAKRYNVSVADLIVANNIKGNTIQKGQVLRLAQAAPAQTRIEKVSYTARKGDTFKSIAARFNIHIDDIRRLNPNLNTINPGQRVKLIGS”, which protein production is on record?
A: Its protein production is “failed”.

Q: Which protein production does the source give for “MENIEYVFEDVVRIYDTDAQGIAHYAAYYRFFTNTIEKFIKEKVGIPYPIVNENLWFVIAESHAIYHRPVKLGDKLTVLLNPKILSNKTIKFEFKVLKDGELTTEGYVIQIAINPKIWKSTEMPKEIMDKLSIK” here?
A: Its protein production is “not failed”.

Q: Which protein production does the source give for “MARANFEPYGRDFPGGRATGRFCNGRLSSDFTSEAYGLKPTVPAYLDPSYNISDFATGVCFASAGTGYDNSTADVLGVIPLWKEVEYFKEYQSNLSAYLGHRRAAKIIRESLYIVSIGTNDFLENYYTLPDRRSQFSISQYQDFLVEIAEVFLKDIYRLGARKMSFTGISPMGCLPLERVTNLDDPFSCARSYNDLAVDFNGRLRRLVTKLNRELTGIKIYFANPYDIMWDIVTKPNLYGLEISSSACCGTGLFEMGFLCGQDNPLTCSDANKFVFWDAFHPTERTNQIVSDHFFKHLKNLFH” here?
A: The protein production was “failed”.

Q: Which protein production does the source give for “MDTRFCSSLLIKNLNTFPASNKEIMNVTVSEAERNAGDERPDLQACAEAYAIVNSAFTKAVTFFKQAYYSKIVNIEKKVSMAVDICKTDFNVLGYQINPLIEKNRQTKILLSMEQIVSHMVSS” here?
A: The protein production was “failed”.

Q: For “MAICESGALPSHVGALSYSGGAASSFFGRRNADGLNDKWLALRDAFRAAGGDLLAIEDARSAALDFVIHVNAHRLRHDVPAFVILAESEFIHPPNVDWRMLQQYKGIFTWMPDLVRRGIGTEICLAHPLGAGVVDGYQERPQLLVMIASNKALPVWRPAVDLYRERVRAIRWFEKHAPQAFALYGHDWDKSPRLPTPLGGIVHGVEFVLPWRLQWFPSWKGVIPSKREVLRHARFSLCYENVRGLRGYITEKIFDAFCAGNVPVYWGAEDITDYIPADCFIDRRAFGDYADLYRYLTSMPETRYIQYQQAICDFLVSPAAKRFSSEIFATTIVGKVLDTLGRRDELEHHHHHH”, which protein production is on record?
A: Its protein production is “failed”.

Q: For “MFGCLVAGRLVQTDAQQVASDKFVFNLPDYEHVNHVVVFLLGTVPFPEGLGGAVYLCVPGGAAGQVWQLLGFITNEKPSAIFRISGLKAGEGSSHPFGMMDAPAAPSMAQVGVSVEGLHLLAQQTPVSSSAVSTLDSFTQFTQKMLDSLFNFTSSFALSQSRMSPNPSEMFIPASSIRRWYENFQRRLMQNPNFWKT”, which protein production is on record?
A: Its protein production is “failed”.

Q: For “MQAYVLHFIALVIMSLTGTTSGAFAQNGQSTEVSGPIEDRVPHRHQERPGERMPADYGTPRLLNLGAHTFPVSTSNQLAQQYMNQGLNLSYAFNHAEAGRAFREAARLDPALAMAYWGQALVLGPNINAPMEAKNEVSALELVRKAASLAAGVSDRERALIGALEKRYTGNSEDRKANDKAYANAMREVHRRFSGDQDIAMLFVESVMDTSPWGYWMRDDYPMEGTREIVAVTEGVLQGNPRHPGATHMYIHLMEPTNMPERAAQAADTLLTLMPDAGHLIHMPSHIYLRVGRYEDAIIANQRAIAADVRYLVRQHEHGFYAMAYFPHNIHFLGAAATADGQSELAIDSARKVASTIDDAVLKEMPMTGVFRVVPYWALTRFGKWDEMLQEPEPPSSNAFLKGGWHYARGLAFVAKRQLSEAEQELAALREIMKDDSLDGPLLSVNTARSVLRIGPAVLAGEIAAARGQFNSAIAHLEQAVRLEDSLAYTEPPEWQAPPRLTLGAILLEAGHPAEAETVYWEDLRRNRNNGWALYGLLQALRAQGKNERAALVEERFNKAWARADVKLGASRFGCVFSPMTMAGQSR”, which protein production is on record?
A: The protein production was “failed”.

Q: With “MMGDYGITEEDLVIEEAQGYPRAYTKICRDFDAFPYKNGPPFTFMPYILQQNESLRCREVDQMFPVIDPKARPTTKPKIFLSLLWKQLNHLGNAGFDPAVIRIDPYGNVVYFHADSASPLAWSFDHWFPCSRGGLTVPSNLRIVQWQARKNKKDKLEFLVPWWDLQVGISVNQFLSIFAASSSDFRYR” as the sequence, how does the protein production read?
A: The protein production was “failed”.

Q: With “MLNEEQNSLEEKGGENKNEKETPLKGIHSKIPSLKQALEQTISKIKSSKEFFKQILHNKKKLYIALGALLLLIVLIVALSLLLGHKKENKQTSLQTNTIATNNETPNNTNNANNTEAERQIENLDLSDLIGKDSLKRNDENQVDAIMKKASLLYEQGQKDEALHLFDKAASFSQGIASHNLGVIKFKEKDFNGALDLFDSSIASKENASVSAIDALVSAYHLQDEDLYYHYLKIARDTLYKDYKKSFYSYAYALKSYYAGEYFEALSPLMHPNSNAFLKPNTRLASKLFLMFKDETNAYEQLQKSANAQDELALGLLQARLGHYKQALEHLQHYLHNYPKDLNALMALELVSLKKGDTLKASEALKLASHTKEDTLLANSFYPIKPTINPVFLDKERAKERFWNTQYFEGKRDFIYRLLFYYAPFKVLDSKETLGVIEEGLFLLDSDAQKDLEGASLAFKRGRLMAIADKNALQGLKALENKRLKKALSFFDLSLKNSPNNALLHYNTGLIYAQLENYHKAYFHFLRAFHLNSADYLSAVFAILASHFTHEDTTEFLREITENFYSQDFSSPTQKALLSSLIAYLNYRTNWDMDWLKNAPKKLPFYYALEAAFAKESKDKKLMVQSFGNLKKMLPKDLISNIFYEIVSYYDASIRHTLSIYTLLDSHKISWDQTMQGPILGRHFYTYMGFMVNDLDHQERLLEQKIASLEEGEAPNDWLENLALVSLFQGQYEKASALYQNLISGLKDNETHLKILAGLTYIAQNNYDSAALWLELGKLDDPNNENIRYALGLLYQRKGDLKSALNHFLAIKTSDFSSPYFDFEIDANLLKERLDQEKEGEFLE” as the sequence, how does the protein production read?
A: The protein production was “failed”.

Q: For “ELVVKRGEIFGVVGPTGSGKSNLISDIEQLAQGDTPSNRKILVNGNVPDTEMRRDPRKRRIAQLSQNMNFLADMTVEEFLIMHAKSRGMNSEGIVDKVIKLANNLTGEPIEKDYNLTILSGGQSRSLMVADVAVISDSPIVLIDEIENAGIKKHEALELLAGCGKIVMVITHDPVLALMTTRRVVMRNGGMNEIIETTE”, which protein production is on record?
A: The protein production was “failed”.

Q: With “MVTNMVKLRNLRRLYCSSRLLRTIQNGRISSVSSISLSKKYTTKSAKEGEENVERKHEEEKKDTLKSSSVPTSRISRLFHYGSLAAGVGMNAAAKGISEVAKGNSPTWKSLILSDSNIDRITNKFSKMRGVALKIGQLLSFQDEKVLPKELYEILSRVQNSANHMPQRQLEKVMAKELGANWKTKFSKFDKIPMAAASIGQVHAAELPSGQRVVVKIQYPGVKESIDSDLNSLLMLLTASSLLPKGLFLDKTIANARTELKWECDYNREARALQKFEALLKDDPAFEVPHVFPEYTTDNIITATRMEGTEIMKLPKASQETKNFISENIMRLCLEEIATFKYMQTDPNWANFLYNGRTKKIELLDFGASRPFAEDFILKYRKLLTYATLRDRKGAYEMSVQLGYLTGLESQSMKDAHVDSVLTLGEPFRGDVDKSFDFKDQTVSDRIRGNIGLMLNERLCPPPEETYSLHRKFSGIFLLCARMGASVHCAKLFKEIFAYKV” as the sequence, how does the protein production read?
A: The protein production was “failed”.

Q: For “GKRSHSMKRNPNAPVTKAGWLFKQASSGVKQWNKRWFVLVDRCLFYYKDEKEESILGSIPLLSFRVAAVQPSDNISRKHTFKAEHAGVRTYFFSAESPEEQEAWIQAMGEAARVQ”, which protein production is on record?
A: Its protein production is “not failed”.

Q: With “MKSWPRPCSWACANPETKGRAYRTMSSSPTISPASDTFAAMTDDHRLAEFIREQASATRVVIQARKRLSGGAIQENWLLDLLIEGGPWAGVRRWVLRSDALSALPASLDREQEFAVLQVVYQAGVKVPRPLWLCRDVRVHGRVFFLMEYVPGSAAGRALSTGAGPQGRAQLATQLGANLARLHQVRPPCATLCFLSVPDSSPALATIDAYRRYLDTLADAYPVLEWGLRWCELHAPRSSTLCLLHRDYRTGNYLASEEGLEAVLDWEFTGWGDPCEDLGWFTARCWRFTRPDLEAGGIGQLEDFLRGYHEVSSLCIERSRLHYWQVMATLRWAVIALQQGQRHLSGEEPSLELALTARLLPELELDILHMTGAEAP” as the sequence, how does the protein production read?
A: The protein production was “failed”.

From a protein production outcome set (Wang et al. 2014)
